Assay [1] addresses T1, RB200 (human, UniProt P00533 25-645; P21860 20-643).
T1 construct: extracellular domain; Purified over Ni-Sepharose, so a His tag is likely on one chain, but none is described; also called parent heterodimer RB200; EGFR/HER3 heterodimer
The assay can be described thus: displacement of Eu-EGF from immobilised RB200 by unlabeled HB-EGF. The method, then: (§1) Plates were incubated at RT for 2 hrs and then rinsed 3 times with DELFIA wash buffer. […] The plates were incubated at RT for 2 hrs followed by three quick rinse with ice-cold Delfia wash buffer containing0.02% Tween-20. To quantify bound Eu-ligands 130 μl/well of Delfia enhancement solution was added and the plates were read on a fluorescence plate reader (Envision, model 2100, PerkinElmer).

A further assay has as its target T2, RB242 (human, UniProt P00533 25-645; P21860 20-643).
T2 construct: extracellular domain; purified to about 95% homogeneity; also called optimized hermodulin variant RB242
The assay can be described thus: displacement of Eu-EGF from immobilised RB242 by unlabeled HB-EGF. The protocol:
as §1

Assay [2] deals with T1, RB200. Description: 125I-NRG1-β saturation binding, heterodimer immobilised on anti-Fc coated plate.
Assay [3] addresses T1, RB200. The assay can be described thus: Eu-NRG1-β saturation binding (DELFIA), purified heterodimer immobilised on anti-human Fc plate. The method, then:
as §1

The next assay has as its target T3, HER3:Fc mutant C481R (human, UniProt P21860 20-643).
T3 construct: extracellular domain
The assay can be described thus: HER3:Fc mutant ligand binding screen.

The target in a further assay is T4, HER3:Fc mutant F96L (human, UniProt P21860 20-643).
T4 construct: extracellular domain
The assay can be described thus: HER3:Fc mutant ligand binding screen.

The next assay addresses T5, HER3Y246A:Fc (human, UniProt P21860 20-643).
T5 construct: extracellular domain; Screened as an Fc fusion homodimer in conditioned medium
Description: HER3:Fc mutant ligand binding screen.

In another assay the target is T6, HER3:Fc mutant D343H (human, UniProt P21860 20-643).
T6 construct: extracellular domain
Description: HER3:Fc mutant ligand binding screen.

For a further assay, the target named is T7, HER3:Fc mutant L102S (human, UniProt P21860 20-643).
T7 construct: extracellular domain
The assay can be described thus: HER3:Fc mutant ligand binding screen.

Another assay deals with T8, HER3:Fc mutant K415S (human, UniProt P21860 20-643).
T8 construct: extracellular domain
Description: HER3:Fc mutant ligand binding screen.

A further assay addresses T9, HER3:Fc mutant S438T (human, UniProt P21860 20-643).
T9 construct: extracellular domain
The assay can be described thus: HER3:Fc mutant ligand binding screen.

In the next assay the target is T10, HER3:Fc mutant V19Q (human, UniProt P21860 20-643).
T10 construct: extracellular domain
The assay can be described thus: HER3:Fc mutant ligand binding screen.

The next assay concerns the target T11, HER3:Fc mutant L48Y (human, UniProt P21860 20-643).
T11 construct: extracellular domain
The assay can be described thus: HER3:Fc mutant ligand binding screen.

A further assay addresses T12, HER3:Fc mutant D343L (human, UniProt P21860 20-643).
T12 construct: extracellular domain
Description: HER3:Fc mutant ligand binding screen.

In a further assay the target is T13, HER3:Fc mutant D343I (human, UniProt P21860 20-643).
T13 construct: extracellular domain
The assay can be described thus: HER3:Fc mutant ligand binding screen.

For another assay, the target named is T14, HER3:Fc mutant D325N (human, UniProt P21860 20-643).
T14 construct: extracellular domain
The assay can be described thus: HER3:Fc mutant ligand binding screen.

A further assay concerns the target T15, HER3:Fc mutant S18T (human, UniProt P21860 20-643).
T15 construct: extracellular domain
Description: HER3:Fc mutant ligand binding screen.

In a further assay the target is T16, HER3:Fc mutant Y436L (human, UniProt P21860 20-643).
T16 construct: extracellular domain
The assay can be described thus: HER3:Fc mutant ligand binding screen.

A further assay has as its target T17, HER3:Fc mutant N103K (human, UniProt P21860 20-643).
T17 construct: extracellular domain
Description: HER3:Fc mutant ligand binding screen.

Another assay has as its target T18, HER3:Fc mutant D343F (human, UniProt P21860 20-643).
T18 construct: extracellular domain
Description: HER3:Fc mutant ligand binding screen.

For the next assay, the target named is T19, HER3:Fc mutant G563Q (human, UniProt P21860 20-643).
T19 construct: extracellular domain
The assay can be described thus: HER3:Fc mutant ligand binding screen.

The target of the next assay is T20, HER3:Fc mutant H565E (human, UniProt P21860 20-643).
T20 construct: extracellular domain
The assay can be described thus: HER3:Fc mutant ligand binding screen.

For the next assay, the target named is T21, HER3:Fc mutant A439D (human, UniProt P21860 20-643).
T21 construct: extracellular domain
The assay can be described thus: HER3:Fc mutant ligand binding screen.

B1: HB-EGF (ligand, UniProt Q99075 63-148, looked up)
chain: DLQEADLDLLRVTLSSKPQALATPNKEEHGKRKKKGKGLGKKRDPCLRKYKDFCIHGECKYVKELRAPSCICHPGYHGERCHGLSL
By Ki is commonly meant a dissociation constant, usually derived from enzyme kinetics or from competition with a known ligand. A higher Ki goes with lower affinity. Consider B1, for which the Ki with RB200 [1] is 20.1 nM; with RB242 it was 1.3 nM.

B2: NRG1-β (ligand, UniProt Q02297-6 177-241, looked up)
chain: SHLVKCAEKEKTFCVNGGECFMVKDLSNPSRYLCKCPNEFTGDRCQNYVMASFYKHLGIEFMEAE
notes: also called NRG1β1; NRGβ1
In general, Kd refers to the constant that tells how readily two partners part at equilibrium. A high value points to weaker binding. In the case of B2, the Kd with RB200 [2] was found to be 12.3 nM; with RB200 [3], 3.1 nM. For the same molecule, the binding result is “no binding” with HER3:Fc mutant C481R; “no binding” with HER3:Fc mutant F96L; “binds” in the assay with HER3Y246A:Fc; “no binding” with HER3:Fc mutant D343H; “no binding” in the assay with HER3:Fc mutant L102S; “no binding” with HER3:Fc mutant K415S. Also, the binding result in the assay with HER3:Fc mutant S438T, in the assay with HER3:Fc mutant V19Q, in the assay with HER3:Fc mutant L48Y, with HER3:Fc mutant D343L, with HER3:Fc mutant D343I and in the assay with HER3:Fc mutant D325N was “no binding” throughout. Moreover, the binding result with HER3:Fc mutant S18T, with HER3:Fc mutant Y436L, in the assay with HER3:Fc mutant N103K, with HER3:Fc mutant D343F, in the assay with HER3:Fc mutant G563Q and with HER3:Fc mutant H565E was “no binding” in each case. Further, the binding result with HER3:Fc mutant A439D is recorded as “no binding”.

Values taken from US20100278801A1 (published 2010).
